Consider 1 molecule from patent US20030190641A1, “Live cell method for observing cellular processes” (CEDARS-SINAI MEDICAL CENTER, priority 2002, published 2003).

The subject of assay [1] is H1299 cells. As to the kind of experiment: Single, live cell imaging: duration of mitosis phases of cells expressing PTTG-EGFP. Format: cell-based, human. The conditions noted are these: 18 hours after transfection. How it is done:
(§1) Human H1299 cells were grown in Dulbeccos's Modified Eagle Medium (DMEM) with 10% Fetal Bovine Serum (FBS) and transfected with Lipofectamine 2000 (obtained from Invitrogen Corporation; Carlsbad, Calif.; hereinafter “Invitrogen”). PTTG-EGFP and p55CDC-EGFP were constructed by cloning PTTG or p55CDC (obtained from Amgen, Inc.; Thousand Oaks, Calif.) into pEGFP-N3 (obtained from BD Biosciences Clontech; Palo Alto, Calif.; hereinafter “Clontech”). Non-degradable mutant PTTG-EGFP was obtained from Dr. Chris McCabe (University of Birmingham, England, UK). EGFP was at the C-terminus of PTTG or p55CDC. Cells were studied (microscopy or by Western blot) 18 to 24 hours after transfection.
(§2) Observation of individual live cells over 48 hours or longer was performed by incubating cells in an FCS2 Closed Perfusion System (obtained from Bioptechs; Butler, Pa.). Cells were perfused with CO2-independent L15 medium (obtained from Invitrogen) supplemented with 10% FBS and penicillin/streptomycin and saturated with ambient air. Perfusion chamber temperature was set to 37° C., and cells were grown in the perfusion system for up to a week until confluency.
(§3) The perfusion chamber was placed on an inverted fluorescence microscope (obtained from Nikon Corporation; Melville, N.Y.) and observed with a 40× extra-long working distance objective lens. Cells were observed from every few seconds to every several hours depending on the speed of cell changes. Durations of mitosis phases were determined by counting the minutes between two sequential mitotic milestones. Phase-contrast and EGFP fluorescent images were taken simultaneously at frequencies ranging from every minute (e.g., during metaphase to anaphase transition) to every few hours (e.g., after telophase), with a CCD digital camera.
(§4) Relative fluorescence intensity was objectively determined with the application of two neutral density filters (NDFs). Each NDF reduces incident light by 50%. High fluorescence was defined when a cell was clearly visualized after application of two NDFs. Medium fluorescence was defined as a cell clearly visualized after application of one but not two NDFs. Low fluorescence was defined as a cell only visualized when neither NDF was applied.
As depicted in Table 1, prophase (Pro), metaphase (Meta), anaphase (Ana), and telophase (Telo) durations were recorded (in minutes) in untransfected control cells (Control), cells expressing EGFP only (EGFP), and in cells expressing PTTG-EGFP (PTTG-EGFP) 18 hours after transfection. […] For some cells expressing PTTG-EGFP, no distinct anaphase or telophase was seen because of abnormal chromosome segregation and cytokinesis.

Assay [2] concerns H1299 cells. As to the kind of experiment: Single, live cell imaging: destiny of mitosis (PTTG degradation, chromosome segregation, cytokinesis, aneuploidy). It is filed as cell-based, human. Here is the method: as §1, §2, §3, §4
As failure of PTTG degradation is associated with chromosome non-segregation, an EGFP-tagged non-degradable mutant PTTG (DM-PTTG-EGFP) was expressed in H1299 cells and chromosome segregation and cytokinesis of individual live cells observed (FIG. 6; FIG. 5A). Similar to the wild-type PTTG, DM-PTTG localizes to mitotic spindles (FIGS. 5B-5G) and chromosomes (data not shown). […] Most (51/55) cells underwent asymmetrical cytokinesis, while some cells decondensed chromosomes; macronuclei ensued in both cases. During asymmetrical cytokinesis, chromosomes and mitotic spindles were closely attached and moved to one cell pole (FIGS. 5B-5G). The cytokinesis furrow occurred roughly at the position of the distal centrosome (FIGS. 5C and 5D). Both centrosomes were retained in the daughter cell containing chromosomes (FIGS. 5E and 5F).

[3] abbreviates: High expression level (fluorescence).
[4] abbreviates: Low expression level (fluorescence).
Setting [5] is: Medium expression level (fluorescence).

B1: PTTG-EGFP: EGFP-tagged PTTG (pituitary tumor transforming gene product), EGFP at the C-terminus, expressed in H1299 cells by transfection (protein, UniProt O95997 2-202, looked up)
Securin: ATLIYVDKENGEPGTRVVAKDGLKLGSGPSIKALDGRSQVSTPRFGKTFDAPPALPKATRKALGTVNRATEKSVKTKGPLKQKQPSFSAKKMTEKTVKAKSSVPASDDAYPEIEKFFPFNPLDFESFDLPEEHQIAHLPLSGVPLMILDEERELEKLFQLGPPSPVKMPSPPWESNLLQSPSSILSTLDVELPPVCCDIDI
modifications: C-terminal EGFP tag
notes: EGFP-tagged PTTG (pituitary tumor transforming gene product), EGFP at the C-terminus, expressed in H1299 cells by transfection
For B1, in the assay with H1299 cells [1] (setting [3]), the “Duration of metaphase (Meta)” value was determined as 112 ± 31 min and the “Duration of prophase (Pro)” value amounted to 59 ± 7 min. In the assay on H1299 cells [1] (setting [4]), the “Duration of anaphase (Ana)” value was 4 ± 0 min, the “Duration of metaphase (Meta)” value stood at 26 ± 4 min, the “Duration of prophase (Pro)” value worked out at 25 ± 3 min and the “Duration of telophase (Telo)” value stood at 5 ± 0 min. Also, in the assay on H1299 cells [1] (setting [5]), the “Duration of anaphase (Ana)” value stood at 4 ± 0 min, the “Duration of metaphase (Meta)” value was 49 ± 16 min, the “Duration of prophase (Pro)” value was 35 ± 12 min and the “Duration of telophase (Telo)” value amounted to 5 ± 0 min. For the same molecule, the “Cells with anaphase bridge” value with H1299 cells [2] (65 cells expressing PTTG-EGFP observed) is recorded as 2/65. Also, in the assay on H1299 cells [2] (cells that underwent apparently normal mitosis), the “Time of degradation prior to the onset of anaphase” value is “about 1 minute”. Besides, the “Aneuploidy of daughter cells” value in the assay on H1299 cells [2] (parent cells expressing high levels) was “All daughter cells”. In the assay on H1299 cells [2] (parent cells expressing low levels), the “Aneuploidy rate of daughter cells” value is recorded as 18%. Also, the “Aneuploidy rate of daughter cells” value with H1299 cells [2] (parent cells expressing medium levels) is given as 63%.
